Consider one substance from patent publication US20020061546.

For data set [1], the system named is GFP N-terminal phosphorylation mutant 1MRKGSCLF
The following applies: scale: relative to the endogenous site HKFSV of Aequorea GFP.

The test system of data set [2] is GFP N-terminal phosphorylation mutant 1MRRDSCLF
The note with it: scale: relative to the endogenous site HKFSV of Aequorea GFP.

For data set [3], the system named is GFP phosphorylation mutant 172RRGSV. The note with it: scale: relative to the endogenous site HKFSV of Aequorea GFP.
The subject of data set [4] is GFP N-terminal phosphorylation mutant 1MSRRDSCF
The note with it: scale: relative to the endogenous site HKFSV of Aequorea GFP.

Data set [5] has as its system GFP phosphorylation mutant 25RRFSV. The following applies: scale: relative to the endogenous site HKFSV of Aequorea GFP.
Data set [6] deals with GFP phosphorylation mutant 68RRFSA. The note with it: scale: relative to the endogenous site HKFSV of Aequorea GFP.
For data set [7], the system named is wild type Aequorea green fluorescent protein.
The subject of data set [8] is GFP phosphorylation mutant 155KRKSGI. The following applies: scale: relative to the endogenous site HKFSV of Aequorea GFP.
The subject of data set [9] is GFP N-terminal phosphorylation mutant 1MRRESLLF
The following applies: scale: relative to the endogenous site HKFSV of Aequorea GFP.

Data set [10] relates to GFP N-terminal phosphorylation mutant 1MRKGSLLF
The following applies: scale: relative to the endogenous site HKFSV of Aequorea GFP.

In data set [11] the test system is GFP N-terminal phosphorylation mutant 1MSKRRDSL
The following applies: scale: relative to the endogenous site HKFSV of Aequorea GFP.

Data set [12] concerns GFP phosphorylation mutant 214KRDSM.
Where [13] appears, read: scale: relative to the endogenous site HKFSV of Aequorea GFP.

protein kinase A catalytic subunit: the Relative rates of phosphorylation in data set [1] turned out to be 5.1; in data set [2], 3.7; in data set [3], 1.57; in data set [4], 2.1; in [5] it was 1.75; in [6], 0.6. The Relative rates of phosphorylation was 1 in data set [7] (setting [13]); 2.5 in data set [8]; 3 in data set [9]; 1.6 in data set [10]; 5.5 in data set [11]; 1.88 in data set [12] (setting [13]). In addition, the phosphorylation in vitro result in data set [7] is reported as “can be phosphorylated by protein kinase A in vitro with relatively slow kinetics”. Further, the “kinetics of phosphorylation using gamma-32P-labeled ATP” value in [12] is reported as “the site is poorly phosphorylated by protein kinase A”.
